# Laboratory results as given in the RNAGym collection of RNA variant scans (doi:10.7554/elife.80360).
# B1: Hammerhead Ribozyme (parent)
# chain: ACCGGAUGUGCUUUCCGGUCUGAUGAGUCCGUGAGGACGAAACAG
# Variants of: B1
# Assay: self-cleavage, relative activity (ratio to wild type); higher = more cleavage; co-transcriptional
row,Variant,self-cleavage
1,G33A,1.03
2,C30U A41U,0.419
3,C30U A41G,0.35
4,C30U A41C,0.374
5,U32A A40G,0.312
6,U32A A40U,0.405
7,U32A A40C,0.622
8,G31A U32C,1
9,G31A U32A,1.06
10,G31A U32G,0.529
11,U32C A34C,0.95
12,U32C A34G,0.896
13,U32C A34U,0.738
14,C30G A41U,0.266
15,U32A A34C,0.796
16,U32A A34G,0.818
17,U32A A34U,1.04
18,U32C A37U,0.752
19,U32C A37G,0.987
20,U32C A37C,0.803
21,G33A A34G,0.484
22,G33A A34C,1
23,G33A A34U,0.873
24,C30G G35C,1.03

row,Variant,self-cleavage
1,C30G G35A,1.06
2,C30G G35U,1.04
3,G31U A42U,0.295
4,G31U A42G,0.28
5,G31U A42C,0.363
6,G31A A34C,0.991
7,G31A A34G,0.846
8,G31A A34U,0.954
9,C30G G36A,0.553
10,C30G G36U,0.697
11,C30G G36C,0.441
12,C30U U32A,0.892
13,C30U U32C,1.05
14,C30U U32G,1.17
15,U32C A42U,0.366
16,U32C A42G,0.364
17,U32C A42C,0.316
18,U32C A44C,0.678
19,U32C A44G,1.32
20,U32C A44U,0.359
21,U32C C38G,0.691
22,U32C C38U,0.726
23,U32C C38A,0.691
24,C30U G39C,0.319

row,Variant,self-cleavage
1,C30U G39U,0.365
2,C30U G39A,0.278
3,C30U G35A,1.02
4,C30U G35U,1.18
5,C30U G35C,0.758
6,C30G U32G,0.651
7,C30G U32C,0.581
8,C30G U32A,0.632
9,G31A A40G,0.417
10,G31A A40U,0.297
11,G31A A40C,0.642
12,G31U G36A,0.482
13,G31U G36C,0.568
14,G31U G36U,0.466
15,U32G C43A,0.256
16,U32G C43U,0.43
17,U32G C43G,0.303
18,C30U A37C,1.08
19,C30U A37U,0.643
20,C30U A37G,1.21
21,U32G A37C,0.431
22,U32G A37U,0.46
23,U32G A37G,0.448
24,U32G G39A,0.362

row,Variant,self-cleavage
1,U32G G39C,0.497
2,U32G G39U,0.317
3,G31U A37C,1.25
4,G31U A37G,0.899
5,G31U A37U,0.847
6,G31A C38G,0.592
7,G31A C38U,0.919
8,G31A C38A,0.766
9,U32C G39A,0.317
10,U32C G39U,0.369
11,U32C G39C,0.375
12,U32G G33A,0.843
13,U32G G33U,0.838
14,U32G G33C,0.966
15,U32G G45A,0.56
16,U32G G45C,0.712
17,U32G G45U,0.587
18,U32C G35A,0.83
19,U32C G35U,0.795
20,U32C G35C,0.647
21,C30U,1.02
22,G31C,0.96
23,G31A,1.03
24,G31U,0.966

row,Variant,self-cleavage
1,U32A G45U,0.707
2,U32A G45C,0.593
3,U32A G45A,0.852
4,C30U G31U,1.01
5,C30U G31A,1.02
6,C30U G31C,1.11
7,G31A C43A,0.329
8,G31A C43G,0.345
9,G31A C43U,0.499
10,G31A A44C,0.685
11,G31A A44U,0.861
12,G31A A44G,1.51
13,G31C A42G,0.232
14,G31C A42U,0.373
15,G31C A42C,0.328
16,C30G A44U,0.367
17,C30G A44C,0.363
18,C30G A44G,0.769
19,U32A G39U,0.366
20,U32A G39A,0.367
21,U32A G39C,0.485
22,U32C,1
23,U32G,0.769
24,U32A,0.949

row,Variant,self-cleavage
1,G31A A42C,0.38
2,G31A A42G,0.298
3,G31A A42U,0.335
4,G31A G45C,0.945
5,G31A G45U,0.805
6,G31A G45A,0.934
7,G31C G45U,0.757
8,G31C G45A,0.438
9,G31C G45C,0.515
10,G31C A37G,0.968
11,G31C A37C,1.05
12,G31C A37U,0.587
13,U32G A34G,0.65
14,U32G A34C,0.805
15,U32G A34U,1.19
16,U32G G36C,0.464
17,U32G G36A,0.556
18,U32G G36U,0.398
19,U32C C43G,0.388
20,U32C C43A,0.315
21,U32C C43U,0.661
22,U32C A40G,0.406
23,U32C A40U,0.306
24,U32C A40C,0.626

row,Variant,self-cleavage
1,U32G A44G,0.898
2,U32G A44U,0.477
3,U32G A44C,0.424
4,U32A A42U,0.373
5,U32A A42C,0.315
6,U32A A42G,0.238
7,G31C C38A,0.62
8,G31C C38G,0.488
9,G31C C38U,0.94
10,G31C G39A,0.355
11,G31C G39C,0.314
12,G31C G39U,0.373
13,C30U A44G,1.36
14,C30U A44C,0.632
15,C30U A44U,0.625
16,U32G A40G,0.342
17,U32G A40U,0.39
18,U32G A40C,0.372
19,G31C A40G,0.302
20,G31C A40C,0.564
21,G31C A40U,0.367
22,C30G G33C,0.807
23,C30G G33A,0.715
24,C30G G33U,1.02

row,Variant,self-cleavage
1,U32C G33U,1.37
2,U32C G33A,0.924
3,U32C G33C,1.15
4,G33A A37C,1.03
5,C30U A34U,0.93
6,C30U A34G,0.961
7,C30U A34C,1.03
8,C30G G31U,0.88
9,C30G G31C,0.926
10,C30G G31A,0.806
11,U32G C38U,0.559
12,U32G C38G,0.497
13,U32G C38A,0.674
14,U32A G36C,0.37
15,U32A G36U,0.668
16,U32A G36A,0.721
17,U32A A37C,0.936
18,U32A A37G,1.16
19,U32A A37U,0.754
20,G31U G39C,0.474
21,G31U G39A,0.32
22,G31U G39U,0.353
23,G31U G35C,0.654
24,G31U G35U,1.03

row,Variant,self-cleavage
1,G31U G35A,0.879
2,U32A C38U,0.915
3,U32A C38A,0.681
4,U32A C38G,0.733
5,G31C G35C,0.779
6,G31C G35U,0.698
7,G31C G35A,0.966
8,G31C U32C,0.773
9,G31C U32G,0.683
10,G31C U32A,0.908
11,G31C A41G,0.374
12,G31C A41C,0.306
13,G31C A41U,0.381
14,G31A G35A,1.05
15,G31A G35U,0.875
16,G31A G35C,1.01
17,G31C G36U,0.562
18,G31C G36A,0.527
19,G31C G36C,0.453
20,G31A G33C,0.767
21,G31A G33U,1.15
22,G31A G33A,0.887
23,G31U G33U,1.23
24,G31U G33A,0.708

row,Variant,self-cleavage
1,G31U G33C,1.08
2,C30U G45U,0.981
3,C30U G45A,0.606
4,C30U G45C,1.05
5,U32C A41G,0.311
6,U32C A41U,0.474
7,U32C A41C,0.294
8,C30U C38G,0.598
9,C30U C38U,1.1
10,C30U C38A,0.695
11,G31C G33A,1.08
12,G31C G33U,0.879
13,G31C G33C,0.969
14,U32G A42U,0.375
15,U32G A42G,0.357
16,U32G A42C,0.275
17,G31C A34C,1
18,G31C A34G,0.994
19,G31C A34U,0.68
20,G31U C38A,0.776
21,G31U C38U,0.801
22,G31U C38G,0.59
23,G31U C43G,0.472
24,G31U C43A,0.376

row,Variant,self-cleavage
1,G31U C43U,0.637
2,G31U A34G,0.938
3,G31U A34C,0.84
4,G31U A34U,0.844
5,U32C G36U,0.73
6,U32C G36A,0.718
7,U32C G36C,0.553
8,G31U A41C,0.388
9,G31U A41G,0.364
10,G31U A41U,0.324
11,G31A A41U,0.399
12,G31A A41G,0.317
13,G31A A41C,0.407
14,U32C G45U,0.635
15,U32C G45C,0.425
16,U32C G45A,0.776
17,G31A A37C,1.17
18,G31A A37G,0.978
19,G31A A37U,0.866
20,U32A A44U,0.633
21,U32A A44C,0.581
22,U32A A44G,1.41
23,C30G G39A,0.26
24,C30G G39C,0.334

row,Variant,self-cleavage
1,C30G G39U,0.337
2,G31C A44U,0.655
3,G31C A44C,0.441
4,G31C A44G,1.53
5,G31C C43G,0.34
6,G31C C43U,0.436
7,G31C C43A,0.392
8,U32G A41G,0.299
9,U32G A41C,0.459
10,U32G A41U,0.318
11,U32G G35U,0.603
12,U32G G35C,0.626
13,U32G G35A,0.473
14,G31U A40G,0.382
15,G31U A40C,0.797
16,G31U A40U,0.399
17,G31U A44U,0.94
18,G31U A44G,1.64
19,G31U A44C,0.564
20,C30U A42G,0.24
21,C30U A42U,0.328
22,C30U A42C,0.314
23,C30G C43U,0.276
24,C30G C43A,0.287

row,Variant,self-cleavage
1,C30G C43G,0.267
2,U32A C43A,0.347
3,U32A C43U,0.595
4,U32A C43G,0.484
5,C30U G36A,0.547
6,C30U G36C,0.667
7,C30U G36U,0.498
8,C30U C43U,0.546
9,C30U C43A,0.34
10,C30U C43G,0.343
11,C30U G33U,1.18
12,C30U G33C,0.714
13,C30U G33A,1.02
14,G31U G45C,0.819
15,G31U G45U,0.933
16,G31U G45A,0.95
17,U32A G35C,0.796
18,U32A G35U,0.985
19,U32A G35A,0.75
20,U32A G33A,0.961
21,U32A G33U,0.859
22,U32A G33C,0.846
23,C30G C38G,0.493
24,C30G C38U,0.797

row,Variant,self-cleavage
1,C30G C38A,0.402
2,C30G G45U,0.377
3,C30G G45A,0.403
4,C30G G45C,0.608
5,C30U A40G,0.333
6,C30U A40U,0.345
7,C30U A40C,0.514
8,U32A A41G,0.358
9,U32A A41C,0.347
10,U32A A41U,0.405
11,G31A G39U,0.315
12,G31A G39C,0.377
13,G31A G39A,0.356
14,G31U U32G,0.871
15,G31U U32C,0.69
16,G31U U32A,0.802
17,G31A G36C,0.671
18,G31A G36A,0.603
19,G31A G36U,0.552
20,C30G A42G,0.316
21,C30G A42U,0.227
22,C30G A42C,0.306
